# Results taken from IntAct's records for PubMed 16600184.
# B1: Phospholipid-transporting ATPase accessory subunit LEM3 (Saccharomyces cerevisiae), P42838 (parent)
# chain: MVNFDLGQVGEVFRRKDKGAIVSGDNPEEEEDVDASEFEEDEVKPVRTKNRRPKEDAFTQQRLAAINPVLTPRTVLPLYLLIAVVFVIVGGCILAQNSKVDEVTIYYQDCMTNATSSWSDIPSEHWQFVFHKYKTYNTAPQWRFVDDESDDFTKQRGTCQIRFTTPSDMKNNVYLNYVLEKFAANHRRYVLSFSEDQIRGEDASYETVHDATGINCKPLSKNADGKIYYPCGLIANSMFNDTFPLQLTNVGDTSNNYSLTNKGINWESDKKRYKKTKYNYTQIAPPPYWEKMYPDGYNETNIPDIQDWEEFQNWMRPGAFDKITKLIRINKNDTLPAGEYQLDIGLHWPVLEFNGKKGIYLTHGSHLGGRNPFLGIVYLIGGCICAAMALILLTFWLFGGRKIADASSLSWNMK
# Variants of: B1
# Settings: with atc5_yeast DNF1, P32660
# atc5_yeast DNF1, P32660, sequence (P32660 whole entry): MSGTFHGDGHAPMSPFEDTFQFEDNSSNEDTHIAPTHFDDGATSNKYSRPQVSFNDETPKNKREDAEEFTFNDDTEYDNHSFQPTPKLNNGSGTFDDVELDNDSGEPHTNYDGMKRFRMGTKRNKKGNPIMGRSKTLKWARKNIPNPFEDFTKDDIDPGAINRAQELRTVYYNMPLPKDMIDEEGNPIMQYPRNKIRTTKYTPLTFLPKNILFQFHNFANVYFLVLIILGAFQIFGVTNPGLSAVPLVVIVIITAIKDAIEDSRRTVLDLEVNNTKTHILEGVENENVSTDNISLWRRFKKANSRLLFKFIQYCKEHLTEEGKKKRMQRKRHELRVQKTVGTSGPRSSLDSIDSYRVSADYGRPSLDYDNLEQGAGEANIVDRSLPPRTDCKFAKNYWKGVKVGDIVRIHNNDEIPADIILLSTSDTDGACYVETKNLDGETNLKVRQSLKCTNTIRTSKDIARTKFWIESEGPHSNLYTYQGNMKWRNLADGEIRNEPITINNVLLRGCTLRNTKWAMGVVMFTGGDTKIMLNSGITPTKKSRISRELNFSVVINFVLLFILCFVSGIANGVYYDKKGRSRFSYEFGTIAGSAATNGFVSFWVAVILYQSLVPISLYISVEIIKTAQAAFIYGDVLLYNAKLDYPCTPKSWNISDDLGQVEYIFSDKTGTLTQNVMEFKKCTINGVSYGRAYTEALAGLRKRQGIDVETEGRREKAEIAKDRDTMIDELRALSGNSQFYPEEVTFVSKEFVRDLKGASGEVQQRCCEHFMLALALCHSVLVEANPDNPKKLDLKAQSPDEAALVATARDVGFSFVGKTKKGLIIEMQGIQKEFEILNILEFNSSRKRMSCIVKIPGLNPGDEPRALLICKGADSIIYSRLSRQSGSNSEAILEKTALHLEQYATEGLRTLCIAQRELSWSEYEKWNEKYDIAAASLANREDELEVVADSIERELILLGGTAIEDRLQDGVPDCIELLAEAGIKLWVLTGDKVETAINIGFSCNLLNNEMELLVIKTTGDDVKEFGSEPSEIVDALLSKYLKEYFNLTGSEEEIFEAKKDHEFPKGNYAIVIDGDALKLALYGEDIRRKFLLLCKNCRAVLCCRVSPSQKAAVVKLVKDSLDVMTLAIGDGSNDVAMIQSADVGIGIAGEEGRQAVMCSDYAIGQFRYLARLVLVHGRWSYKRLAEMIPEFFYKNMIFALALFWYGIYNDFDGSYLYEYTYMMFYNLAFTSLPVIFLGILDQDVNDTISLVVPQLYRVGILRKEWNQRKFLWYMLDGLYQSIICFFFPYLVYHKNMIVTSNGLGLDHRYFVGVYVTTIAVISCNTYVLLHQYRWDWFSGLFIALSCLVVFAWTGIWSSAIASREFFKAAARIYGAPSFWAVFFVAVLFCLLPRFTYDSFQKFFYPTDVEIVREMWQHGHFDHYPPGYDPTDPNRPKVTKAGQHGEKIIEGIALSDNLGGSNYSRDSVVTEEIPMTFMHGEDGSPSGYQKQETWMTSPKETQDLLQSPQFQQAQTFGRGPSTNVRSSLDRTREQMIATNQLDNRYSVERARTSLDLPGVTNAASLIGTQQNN
row,effect of a mutation on the interaction,Variant
1,with no effect,MVNFDLGQVGEVFRRKDKGAIVSGDNPEEEEDVDASEFEEDEVKPVRTKNRRPKEDAFTQQRLAAINPVLTPRTVLPLYLLIAVVFVIVGGCILAQNSKVDEVTIYYQDCMTNATSSWSDIPSEHWQFVFHKYKTYNTAPQWRFVDDESDDFTKQRGTCQIRFTTPSDMKNNVYLNYVLEKFAANHRRYVLSFSEDQIRGEDASYETVHDATGINCKPLSKNADGKIYYPCGLIANSMFNDTFPLQLTNVGDTSNNYSLTNKGINWESDKKRYKKTKYNYTQIAPPPYWEKMYPDGYNETNIPDIQDWEEFQNWMWPGAFDKITKLIRINKNDTLPAGEYQLDIGLHWPVLEFNGKKGIYLTHGSHLGGRNPFLGIVYLIGGCICAAMALILLTFWLFGGRKIADASSLSWNMK [R316W]

# Variants of: B1
# Settings: with atc4_yeast DNF2, Q12675
# atc4_yeast DNF2, Q12675, sequence (Q12675 whole entry): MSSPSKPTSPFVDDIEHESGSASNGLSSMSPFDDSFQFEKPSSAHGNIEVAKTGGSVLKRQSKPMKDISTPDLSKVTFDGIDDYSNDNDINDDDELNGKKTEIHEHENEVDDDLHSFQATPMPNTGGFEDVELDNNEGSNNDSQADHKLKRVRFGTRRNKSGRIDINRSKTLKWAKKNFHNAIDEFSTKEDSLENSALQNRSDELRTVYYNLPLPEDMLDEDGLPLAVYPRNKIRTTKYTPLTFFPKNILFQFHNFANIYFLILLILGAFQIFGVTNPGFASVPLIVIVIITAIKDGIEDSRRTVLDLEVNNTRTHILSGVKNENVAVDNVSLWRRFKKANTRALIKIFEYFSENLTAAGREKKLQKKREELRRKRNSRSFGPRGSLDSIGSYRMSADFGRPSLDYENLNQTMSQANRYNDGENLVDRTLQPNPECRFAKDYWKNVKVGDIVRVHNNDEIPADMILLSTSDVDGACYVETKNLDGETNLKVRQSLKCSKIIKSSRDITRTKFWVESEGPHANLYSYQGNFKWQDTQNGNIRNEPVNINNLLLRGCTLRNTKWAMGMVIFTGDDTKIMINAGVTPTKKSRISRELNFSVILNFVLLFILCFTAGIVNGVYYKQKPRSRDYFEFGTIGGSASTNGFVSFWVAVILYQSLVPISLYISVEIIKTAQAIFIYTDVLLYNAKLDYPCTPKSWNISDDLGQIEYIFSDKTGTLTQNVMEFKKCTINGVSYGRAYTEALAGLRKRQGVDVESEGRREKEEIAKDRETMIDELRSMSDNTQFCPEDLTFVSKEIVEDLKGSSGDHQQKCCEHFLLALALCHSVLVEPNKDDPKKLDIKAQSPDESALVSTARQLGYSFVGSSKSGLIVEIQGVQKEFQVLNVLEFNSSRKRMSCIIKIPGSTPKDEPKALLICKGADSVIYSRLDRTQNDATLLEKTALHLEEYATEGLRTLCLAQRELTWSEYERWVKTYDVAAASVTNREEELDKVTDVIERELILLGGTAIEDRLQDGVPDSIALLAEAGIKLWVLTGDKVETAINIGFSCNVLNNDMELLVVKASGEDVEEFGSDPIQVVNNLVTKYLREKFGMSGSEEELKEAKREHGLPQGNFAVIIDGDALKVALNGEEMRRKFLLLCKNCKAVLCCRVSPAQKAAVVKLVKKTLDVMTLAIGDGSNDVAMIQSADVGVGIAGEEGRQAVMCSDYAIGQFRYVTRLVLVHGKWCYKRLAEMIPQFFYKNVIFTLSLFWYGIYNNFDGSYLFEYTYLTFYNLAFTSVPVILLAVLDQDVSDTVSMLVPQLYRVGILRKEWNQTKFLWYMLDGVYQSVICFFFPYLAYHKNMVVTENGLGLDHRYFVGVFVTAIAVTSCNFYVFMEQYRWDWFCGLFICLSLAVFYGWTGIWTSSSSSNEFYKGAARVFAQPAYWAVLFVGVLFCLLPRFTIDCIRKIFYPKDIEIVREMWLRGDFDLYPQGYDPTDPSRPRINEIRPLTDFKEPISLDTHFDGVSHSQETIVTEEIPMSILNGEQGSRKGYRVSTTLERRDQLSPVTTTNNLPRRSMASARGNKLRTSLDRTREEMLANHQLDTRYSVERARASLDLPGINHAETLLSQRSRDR
row,effect of a mutation on the interaction,Variant
1,with no effect,MVNFDLGQVGEVFRRKDKGAIVSGDNPEEEEDVDASEFEEDEVKPVRTKNRRPKEDAFTQQRLAAINPVLTPRTVLPLYLLIAVVFVIVGGCILAQNSKVDEVTIYYQDCMTNATSSWSDIPSEHWQFVFHKYKTYNTAPQWRFVDDESDDFTKQRGTCQIRFTTPSDMKNNVYLNYVLEKFAANHRRYVLSFSEDQIRGEDASYETVHDATGINCKPLSKNADGKIYYPCGLIANSMFNDTFPLQLTNVGDTSNNYSLTNKGINWESDKKRYKKTKYNYTQIAPPPYWEKMYPDGYNETNIPDIQDWEEFQNWMWPGAFDKITKLIRINKNDTLPAGEYQLDIGLHWPVLEFNGKKGIYLTHGSHLGGRNPFLGIVYLIGGCICAAMALILLTFWLFGGRKIADASSLSWNMK [R316W]
